Experimental data as given in patent US20230265516A1 (UNIVERSITY OF ARIZONA ARIZONA BOARD OF REGENTS, published 2023).

Target: T1, nicotinamide phosphoribosyltransferase (NAMPT), secreted form (Homo sapiens (Human), UniProt P43490 1-491)
T1 construct: also called PBEF; visfatin
Assay: SPR (format not described)

T1 sequence (P43490 whole entry): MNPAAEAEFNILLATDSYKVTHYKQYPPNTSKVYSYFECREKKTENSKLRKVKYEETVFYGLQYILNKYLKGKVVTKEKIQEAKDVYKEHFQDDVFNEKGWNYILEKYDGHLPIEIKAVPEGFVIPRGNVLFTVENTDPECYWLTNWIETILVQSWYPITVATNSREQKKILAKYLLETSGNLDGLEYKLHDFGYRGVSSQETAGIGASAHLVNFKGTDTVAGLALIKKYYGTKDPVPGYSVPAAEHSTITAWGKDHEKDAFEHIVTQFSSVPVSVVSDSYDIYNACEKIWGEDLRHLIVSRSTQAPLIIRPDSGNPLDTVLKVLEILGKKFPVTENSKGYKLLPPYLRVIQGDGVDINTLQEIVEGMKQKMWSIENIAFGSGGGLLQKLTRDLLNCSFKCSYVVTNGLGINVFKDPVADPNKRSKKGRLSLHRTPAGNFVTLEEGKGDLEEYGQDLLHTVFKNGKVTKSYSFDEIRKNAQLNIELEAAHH

- Kd: 4.5 nM
B1: humanized anti-NAMPT monoclonal antibody ALT-100 (antibody, V domains shown)
VH: QVQLVQSGAEVTKPGASVKVSCKASGYTFTSYWMQWVRQAPGQGLEWVGEIEPSNSYTNYNQKFRGRVTLTRDTSTTTVYMELSSLRSEDTAVYYCARGGYWGQGTTVTVSS
VL: DIVMTQSPLSLPVTPGEPASISCRSSKSLLHSQGITYLYWYLQKPGQSPQLLIYQLSNRASGVPDRFSGSGSGTDFTLKISRVEAEDVGVYYCVQNLELPYTFGGGTKLEIK
notes: the in vivo control was an IgG1 antibody; also called ALT-100 mAb; Ab3
